Assay results from patent US20180369375A1 (Merck Sharp & Dohme, published 2018).

T1: human LAG3 (expressed on cells) (human)
T1 construct: also called Hu LAG3; human LAG3 transfectants
T1 chain: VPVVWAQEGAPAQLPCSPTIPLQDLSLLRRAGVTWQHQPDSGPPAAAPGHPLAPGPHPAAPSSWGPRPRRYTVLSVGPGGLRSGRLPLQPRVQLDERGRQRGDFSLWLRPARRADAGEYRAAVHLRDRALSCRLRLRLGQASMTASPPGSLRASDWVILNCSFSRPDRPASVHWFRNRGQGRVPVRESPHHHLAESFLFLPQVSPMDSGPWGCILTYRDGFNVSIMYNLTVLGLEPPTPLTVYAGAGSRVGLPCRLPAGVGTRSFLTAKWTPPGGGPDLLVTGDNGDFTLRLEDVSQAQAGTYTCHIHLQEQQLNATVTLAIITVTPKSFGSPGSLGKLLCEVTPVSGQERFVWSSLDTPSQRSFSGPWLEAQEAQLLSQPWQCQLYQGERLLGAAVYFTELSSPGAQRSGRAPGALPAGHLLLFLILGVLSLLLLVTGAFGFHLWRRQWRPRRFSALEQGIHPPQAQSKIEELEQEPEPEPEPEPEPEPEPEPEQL


What was measured:
[1] = molecular target: T1, human LAG3 (expressed on cells); test: cell-based KinExA; BaF/3 cells stably transfected with human LAG3; average of n = 1-3
Protocol: (§1) The affinities of the anti-LAG3 antibodies for human and cynomolgous monkey LAG3 were determined using a cell based Kinetic Exclusion Assay (KinExA). Cell based KinExA can be used to measure the affinity of a molecule for a binding partner on a cell surface (Rathanaswami et al. Analylitical Biochemistry 373(1): 52-60 (2008); Xie et al. J. Immunol. Methods 304 (1-2): 1-14 (2005)). In this case, BaF/3 cells were stably transfected with human or cynomolgus monkey LAG3 proteins. Transfected cells or the parental BaF/3 control cell line were grown to a density of 1.7×10⁶ to 3.2×10⁶ cells per ml at 37° C., 120 RPM, 5% CO₂, in 1×RPMI 1640 media with 10% FBS, 10 ng/ml IL-3, 5 μg/ml puromycin. Cells were concentrated, mixed with 15 pM or 150 pM antibody in cell culture media and incubated 24 to 48 hours at room temperature while rotating at 20 to 30 RPM. Cells were present at a top concentration of 2×10⁷ cells per ml (parental BaF/3 or cynomolgus LAG3 transfectants) or 1×10⁷ cells per ml (human LAG3 transfectants) and diluted in a 2-fold, 18 member series. The cells were pelleted and free antibody in the supernatant was measured using a KinExA 3200 instrument (Sapidyne, Idaho, USA). […] Antibody on the beads was labeled with 1.5 μg/ml Alexa Fluor® 647 conjugated goat anti-human (Fab′)₂ (Jackson ImmunoResearch Laboratories), washed and the fluorescent signal was read all using the KinExA™ 3200. […]

[2] = molecular target: T1, human LAG3 (expressed on cells); test: cell-based KinExA; BaF/3 cells stably transfected with human LAG3; n = 3
Protocol: as §1

[3] = molecular target: T1, human LAG3 (expressed on cells); test: cell-based KinExA; BaF/3 cells stably transfected with human LAG3; n = 1
Protocol: as §1

[4] = molecular target: T1, human LAG3 (expressed on cells); test: cell-based KinExA; BaF/3 cells stably transfected with human LAG3; n = 2
Protocol: as §1

[5] = molecular target: T1, human LAG3 (expressed on cells); test: cell-based KinExA; human LAG3 on BaF/3 cells; ratio to ADI-12126
[6] = molecular target: T2, human LAG3-His tagged recombinant protein (human); test: SPR, Biacore T200; antibody captured, human LAG3-His as analyte, 1:1 Langmuir fit; n = 1
T2 construct: also called human LAG3-His protein; recombinant human LAG3
Protocol: (§2) Approximately 4000 RU of […], Fragment Specific (Jackson ImmunoResearch Catalog #115-006-071, Lot 81313) was immobilized via amine coupling chemistry onto a Series S CM4 sensor chip, catalog number BR-1005-34. Human anti-human LAG3 clones were injected over the immobilized anti-human surfaces at 1 ug/mL for a capture level of 40 RU. HBS-EP+ buffer (BR-1006-69) was used as the running buffer with a flow rate of 30 μL/min.
(§3) Varying concentrations of human LAG3-His protein ranging from 0.15 nM to 18.8 nM, at a flow rate of 40 μL/min were injected over the antibody surfaces. Following each injection cycle, the Series S CM4 chip surface was regenerated using one six second injection of 10 mM Glycine pH 1.5 solution followed by an injection of 12.5 mM NaOH solution at a flow rate of 60 μL/min.
(§4) Background subtraction binding sensorgrams were used for analyzing the rate constant of association (kₐ) and dissociation (kd), and the equilibrium dissociation constant KD. The resulting data sets were fitted with a 1:1 Langmuir Binding Model using the Biacore T200 evaluation software (version 2.0).
Target sequence in this assay (P18627 23-450): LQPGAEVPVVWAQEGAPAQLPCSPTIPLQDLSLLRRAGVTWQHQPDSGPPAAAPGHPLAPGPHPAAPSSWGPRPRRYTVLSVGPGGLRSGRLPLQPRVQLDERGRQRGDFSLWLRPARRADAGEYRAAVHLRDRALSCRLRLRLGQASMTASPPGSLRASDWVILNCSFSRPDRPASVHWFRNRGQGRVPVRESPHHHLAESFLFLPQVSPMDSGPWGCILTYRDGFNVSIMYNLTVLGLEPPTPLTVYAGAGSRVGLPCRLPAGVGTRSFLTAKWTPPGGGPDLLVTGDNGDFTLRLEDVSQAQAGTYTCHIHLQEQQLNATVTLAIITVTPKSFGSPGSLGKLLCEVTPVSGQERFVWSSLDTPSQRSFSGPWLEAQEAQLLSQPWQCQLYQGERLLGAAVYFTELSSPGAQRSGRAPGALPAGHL

[7] = molecular target: T2, human LAG3-His tagged recombinant …; test: SPR, Biacore T200; antibody captured, human LAG3-His as analyte, 1:1 Langmuir fit; n = 2
Protocol: as §2, §3, §4
Target sequence in this assay (P18627 23-450): as above

[8] = molecular target: T2, human LAG3-His tagged recombinant …; test: SPR, Biacore T200; antibody captured, human LAG3-His as analyte, 1:1 Langmuir fit; average
Protocol: as §2, §3, §4
Target sequence in this assay (P18627 23-450): as above

[9] = molecular target: T2, human LAG3-His tagged recombinant …; test: SPR, Biacore T200; fold against the parental antibody, as printed in this row
Protocol: as §2, §3, §4

| Binder | Kd [1] | Kd [2] | Kd [3] | Kd [4] | KD/KD ref (ref = ADI-12126) [5] | Kd [6] | Kd [7] | Kd [8] | Fold weaker than ADI-12126 (M57, M115) IgG4 S228P/Kappa [9] |
| --- | --- | --- | --- | --- | --- | --- | --- | --- | --- |
| ADI-12126 M57G/M115L (antibody, V domains shown) VH: not shown VL: EIVLTQSPATLSLSPGERATLSCRASQSVSSYLAWYQQKPGQAPRLLIYDASNRATGIPARFSGSGSGTDFTLTISSLEPEDFAVYYCQQASIWPLTFGGGTKVEIKR | 0.018 nM | 0.013 nM | 0.015 nM | 0.025 nM | 0.8 | – | – | – | – |
| ADI-12126 M57A/M115L (antibody, V domains shown) VH: EVQLVQSGAEVKKPGASVKVSCKASGYTFTGYYMHWVRQAPGQGLEWMGWINANSGATNYAQKFQGRVTMTRDTSISTAYMELSRLRSDDTAVYYCARDIYDSSDQLNVWGQGTLVTVSS VL: EIVLTQSPATLSLSPGERATLSCRASQSVSSYLAWYQQKPGQAPRLLIYDASNRATGIPARFSGSGSGTDFTLTISSLEPEDFAVYYCQQASIWPLTFGGGTKVEIKR | 0.021 nM | 0.017 nM | 0.017 nM | 0.03 nM | 0.9 | – | – | – | – |
| ADI-12126 (Q1E, M57A, M115L) IgG4 S228P/Kappa (antibody, V domains shown) VH: EVQLVQSGAEVKKPGASVKVSCKASGYTFTGYYMHWVRQAPGQGLEWMGWINANSGATNYAQKFQGRVTMTRDTSISTAYMELSRLRSDDTAVYYCARDIYDSSDQLNVWGQGTLVTVSS VL: EIVLTQSPATLSLSPGERATLSCRASQSVSSYLAWYQQKPGQAPRLLIYDASNRATGIPARFSGSGSGTDFTLTISSLEPEDFAVYYCQQASIWPLTFGGGTKVEIKR | – | – | – | – | – | 0.013 nM | 0.013 nM | 0.013 nM | – |
| ADI-12126 (Q1E, M57Y, M115L) IgG4 S228P/Kappa (antibody, V domains shown) VH: EVQLVQSGAEVKKPGASVKVSCKASGYTFTGYYMHWVRQAPGQGLEWMGWINANSGYTNYAQKFQGRVTMTRDTSISTAYMELSRLRSDDTAVYYCARDIYDSSDQLNVWGQGTLVTVSS VL: EIVLTQSPATLSLSPGERATLSCRASQSVSSYLAWYQQKPGQAPRLLIYDASNRATGIPARFSGSGSGTDFTLTISSLEPEDFAVYYCQQASIWPLTFGGGTKVEIKR | – | – | – | – | – | 0.032 nM | 0.034 nM | 0.033 nM | – |
| ADI-12126 (Q1E, M57T, M115L) IgG4 S228P/Kappa (antibody, V domains shown) VH: EVQLVQSGAEVKKPGASVKVSCKASGYTFTGYYMHWVRQAPGQGLEWMGWINANSGTTNYAQKFQGRVTMTRDTSISTAYMELSRLRSDDTAVYYCARDIYDSSDQLNVWGQGTLVTVSS VL: EIVLTQSPATLSLSPGERATLSCRASQSVSSYLAWYQQKPGQAPRLLIYDASNRATGIPARFSGSGSGTDFTLTISSLEPEDFAVYYCQQASIWPLTFGGGTKVEIKR | – | – | – | – | – | 0.066 nM | 0.065 nM | 0.066 nM | – |
| ADI-12126 (Q1E, M57V, M115L) IgG4 S228P/Kappa (antibody, V domains shown) VH: EVQLVQSGAEVKKPGASVKVSCKASGYTFTGYYMHWVRQAPGQGLEWMGWINANSGVTNYAQKFQGRVTMTRDTSISTAYMELSRLRSDDTAVYYCARDIYDSSDQLNVWGQGTLVTVSS VL: EIVLTQSPATLSLSPGERATLSCRASQSVSSYLAWYQQKPGQAPRLLIYDASNRATGIPARFSGSGSGTDFTLTISSLEPEDFAVYYCQQASIWPLTFGGGTKVEIKR | – | – | – | – | – | 0.282 nM | 0.25 nM | 0.266 nM | – |

Continued, values first:

| Kd [1] | Kd [2] | Kd [3] | Kd [4] | KD/KD ref (ref = ADI-12126) [5] | Kd [6] | Kd [7] | Kd [8] | Fold weaker than ADI-12126 (M57, M115) IgG4 S228P/Kappa [9] | Binder |
| --- | --- | --- | --- | --- | --- | --- | --- | --- | --- |
| – | – | – | – | – | 0.011 nM | 0.01 nM | 0.01 nM | 4.6 fold | ADI-12126 (Q1E, M57G, M115L) IgG4 S228P/Kappa (antibody, V domains shown, The parental residues are Q1, M57, M115) VH: not shown VL: EIVLTQSPATLSLSPGERATLSCRASQSVSSYLAWYQQKPGQAPRLLIYDASNRATGIPARFSGSGSGTDFTLTISSLEPEDFAVYYCQQASIWPLTFGGGTKVEIKR |
| – | – | – | – | – | 0.134 nM | 0.119 nM | 0.127 nM | – | ADI-12126 (Q1E, M57S, M115L) IgG4 S228P/Kappa (antibody, V domains shown) VH: EVQLVQSGAEVKKPGASVKVSCKASGYTFTGYYMHWVRQAPGQGLEWMGWINANSGSTNYAQKFQGRVTMTRDTSISTAYMELSRLRSDDTAVYYCARDIYDSSDQLNVWGQGTLVTVSS VL: EIVLTQSPATLSLSPGERATLSCRASQSVSSYLAWYQQKPGQAPRLLIYDASNRATGIPARFSGSGSGTDFTLTISSLEPEDFAVYYCQQASIWPLTFGGGTKVEIKR |
